In publication PMC12578939 one finds reduction in MT binding against wildtype augmin data, which are given here for one substance.

In the experiment the target is microtubules polymerised from bovine brain tubulin (bovine) (UniProt Q6B856). Put plainly: TIRF microscopy of binding to immobilised microtubules.

As for “augmin octamer lacking the N-terminal CH domain of Haus6 (residues 1-160) (from UniProt Q6DCY9;Q0IHJ3) (complex)”, the reduction in MT binding against wildtype augmin came to 50%.
